The term Kd denotes the constant that tells how readily two partners part at equilibrium.

Assay [1] concerns the target T1, recombinant human Trop-2-his protein (ACCESSION NO.: NP_002344.2, AA 1-274) (human, UniProt P09758 27-274).
T1 construct: range 27-274; also called recombinant human Trop-2 protein; recombinant human Trop-2 extracellular domain; not shown: his tag
T1 sequence (looked up): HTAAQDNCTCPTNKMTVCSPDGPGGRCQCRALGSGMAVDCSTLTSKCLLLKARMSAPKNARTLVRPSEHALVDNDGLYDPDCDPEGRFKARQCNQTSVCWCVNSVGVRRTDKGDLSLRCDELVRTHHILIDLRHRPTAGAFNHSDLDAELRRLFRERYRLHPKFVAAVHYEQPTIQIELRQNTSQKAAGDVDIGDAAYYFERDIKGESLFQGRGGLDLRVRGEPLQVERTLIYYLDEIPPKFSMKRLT
Description: BLI, SN38-labeled antibody on AHC sensor, Trop-2-his 60 nM, 300 s binding. On the procedure: Affinities of the antibodies were determined by an assay including capturing Fc fragments of the antibodies with anti-human IgG Fc capture (AHC) biosensors using Octet QKe system instrument from Fortebio.
For the assay, SN38-labeled antibodies prepared as described above: h23-12-SN38, ch4-3-SN38, ch11-4-SN38, and positive control antibody Sacituzumab-SN38, as well as naked antibodies h23-12, ch4-3, ch11-4, and positive control antibody Sacituzumab were diluted to 4 μg/ml with PBS and allowed to flow through the surface of an AHC biosensor (Cat.: 18-0015, PALL) for 120 s. Recombinant human Trop-2-his protein (ACCESSION NO.: NP_002344.2, AA 1-274) was used as a mobile phase, and its concentration was 60 nM. The binding time was 300 s and the dissociation time was 300 s. When the assay was finished, data from which the response value of blank control had been deducted were fitted to a 1:1 Langmuir binding model using software, and then kinetic constants for antigen-antibody binding were calculated.
Background: In BLI a coated tip is dipped into the sample, and binding shifts an interference pattern.

Assay [2] addresses T2, human Trop-2 on the surface of cells (CHO/Trop-2 cells; BxPC-3 cells; NCI-N87 cells) (human, UniProt P09758 27-323).
T2 sequence (looked up): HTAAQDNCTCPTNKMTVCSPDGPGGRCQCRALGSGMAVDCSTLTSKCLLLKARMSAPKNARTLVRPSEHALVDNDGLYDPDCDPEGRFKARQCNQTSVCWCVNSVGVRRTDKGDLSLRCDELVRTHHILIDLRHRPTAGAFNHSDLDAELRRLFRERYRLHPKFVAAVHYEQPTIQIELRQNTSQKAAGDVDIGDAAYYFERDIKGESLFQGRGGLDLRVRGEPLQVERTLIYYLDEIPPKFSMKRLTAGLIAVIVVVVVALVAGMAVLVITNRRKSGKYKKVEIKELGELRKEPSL
Briefly: cell-based or functional assay.

The target of assay [3] is T2, human Trop-2 on the surface of cells …. Briefly: cell-based or functional assay. The source holds these as a separate data set.
Assay [4] shares this target. Briefly: cell-based or functional assay. This is another data set of the same source.
Assay [5] addresses T3, recombinant mouse Trop-2-his protein (Cat.: 50922-M08H, Beijing Yiqiao Shenzhou Science and Technology Co., … (mouse, UniProt Q8BGV3 25-270)).
T3 construct: Bought protein; not shown: his tag
T3 sequence (looked up): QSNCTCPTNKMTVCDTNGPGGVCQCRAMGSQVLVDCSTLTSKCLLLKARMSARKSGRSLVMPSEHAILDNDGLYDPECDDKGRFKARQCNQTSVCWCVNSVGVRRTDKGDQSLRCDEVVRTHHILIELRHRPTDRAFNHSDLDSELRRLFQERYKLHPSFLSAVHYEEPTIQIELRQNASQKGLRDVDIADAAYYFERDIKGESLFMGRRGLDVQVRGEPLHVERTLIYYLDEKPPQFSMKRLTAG
Description: ELISA, coated mouse Trop-2-his, purified murine antibody. The method, then:
Washed with PBS 3 times, the plates were blocked with the added 5% BSA PBS at 37° C. for 60 min, and then washed 3 times with PBST. The 15 purified murine antibodies were diluted to 1 μg/ml with PBS. Controls as follows were set: (1) Positive Control (PC): Sacituzumab (WHO Drug Information (Vol. 31, No. 1, 2017), SEQ ID NO: 39 and SEQ ID NO: 40), a version having murine IgG constant region, […]; (2) Negative Control (NC): an antibody from an irrelevant hybridoma, 1 μg/ml; (3) blank control: PBS. After incubation at 37° C. for 60 min, the plates were washed 4 times with PBST. […] Afterwards, the plates were washed with PBST 4 times, and TMB substrate was added for color development at 37° C. for 10 min. Then 2M HCl was added to stop reaction; and absorbances at 450 nm and at 630 nm (as reference wavelength) were read, and A450 nm-630 nm values of the wells in the plates were recorded.
In general terms: An ELISA detects its analyte on a solid surface through an enzyme-linked reagent.

B1: Sacituzumab-SN38 (antibody, human IgG1, kappa, V domains shown)
VH: QVQLQQSGSELKKPGASVKVSCKASGYTFTNYGMNWVKQAPGQGLKWMGWINTYTGEPTYTDDFKGRFAFSLDTSVSTAYLQISSLKADDTAVYFCARGGFGSSYWYFDVWGQGSLVTVSS
VL: DIQLTQSPSSLSASVGDRVSITCKASQDVSIAVAWYQQKPGKAPKLLIYSASYRYTGVPDRFSGSGSGTDFTLTISSLQPEDFAVYYCQQHYITPLTFGAGTKVEIKR
modifications: CL2A-SN-38 conjugated to the DTT-reduced antibody; 7.5 SN38 per antibody; sites not stated
notes: also called Sacituzumab labeled with SN38
Regarding B1, the dissociation constant Kd in assay [1] came out at 0.431 nM. Also, in assay [2], the “Internalization percentage, 1 h, NCI-N87 cells, FACS” value was found to be 47.5%. The “Internalization percentage, 1 h, BXPC-3 cells, FACS” value in assay [3] worked out at 32.7%. The “IC50 (µg/ml), inhibitory activity of anti-Trop-2 ADCs on cell growth, BxPC-3 cells” value in assay [4] was determined as 4.31 µg/mL.

B2: ch4-3-SN38 (antibody, V domains shown)
VH: QVQLQQSGPELVKPGASVKMSCKASGFTFTDYVIGWVKQRTGQGLEWIGEIYLGSGTIYYTEKFKGKATLTADTSSNTAYMQLSSLTSEDSAVYFCARGSIFPFDYWGQGTTLTVSS
VL: QIVLTQSPAIMSASPGEKVTMTCSASSSVSYMYWYQQKPGSSPRLLIYDTSTLASGVPVRFSGSGSGTSYSLTISRMEAEDAATYYCQQWSSYPYTFGGGTKLEIK
modifications: CL2A-SN-38 conjugated to the DTT-reduced antibody; 7.5 SN38 per antibody; sites not stated
notes: also called ch4-3 labeled with SN38
Consider B2, for which the Kd in assay [1] was determined as 0.177 nM. The “Internalization percentage, 1 h, NCI-N87 cells, FACS” value in assay [2] was determined as 64.6%. In assay [3], the “Internalization percentage, 1 h, BXPC-3 cells, FACS” value came to 57.7%. The “IC50 (µg/ml), inhibitory activity of anti-Trop-2 ADCs on cell growth, BxPC-3 cells” value in assay [4] turned out to be 3.3 µg/mL.

B3: m4-3 (antibody, mouse IgG1, V domains shown)
VH: B2 VH
VL: B2 VL
notes: also called murine antibody 4-3
Regarding B3, the binding result in assay [5] is listed as “no binding (tested: 1 µg/ml)”.

B4: m23-12 (antibody, mouse IgG1, V domains shown)
VH: QVQLQQPGAELVKPGASVKLSCKADGYIFTSYWMHWVKQRPGQGLEWIGEITPSDNYTSYNQKFKGKATLTVDKSSSTAYMQLSSLTSEDSAVYYCTRGHGNYVSFDYWGQGTTLTVSS
VL: DIQMTQITSSLSASLGDRVTITCRASQDISNYLNWYQQKPDGTVKLLIYYTSRLHSGVPSRFSGSGSGTDYSLTISNLEQEDIATYFCQQGYTLPPYTFGGGTKLEIK
notes: also called murine antibody 23-12
Take B4: in assay [5], the binding result was “no binding (tested: 1 µg/ml)”.

B5: m3-11 (antibody, mouse IgG1, V domains shown)
VH: QVQLQQPGAELVKPGSSVKLSCKASGYTFTSYWMYWVKQRPGQGLEWIGEINPSNGRTNYNEKFKSKATLTVDKSSSTAYMQFSSLTSEDSAVYYCTREGHNYDGSLGAMDHWGQGTSVTVSS
VL: DVVVTQTPLSLPVSFGDQVSISCRSSQSLTNSYGNTFLSWYLHKPGQSPQLLLYGISNRFSGVPDRFSGSGSGTDFTLKINTIKPEDLGMYYCFQSTHQPYTFGGGTKLEIK
notes: also called murine antibody 3-11
For B5, the binding result in assay [5] is listed as “no binding (tested: 1 µg/ml)”.

B6: m11-4 (antibody, mouse IgG1, V domains shown)
VH: QVQLQQPGAELVRPGASVNLSCKASGYTFTSYWINWVKQRPGQGLEWIGNIYPSNSYTNYNQKFKDTATLTVDKSSSTAYMQLSSPTSEDSAVYFCSSYRSDGFAYWGQGTLVTVSA
VL: DILLTQSPAILSVSPGEKVSFSCRASQNIGTSIHWYQQRTNGSPRLLIEFASESISGIPSRFSGSGSGTDFTLTINSVESEDIADYYCQQSNSWPFTFGGGTKLEIK
notes: also called murine antibody 11-4; ml 1-4
As for B6, the binding result in assay [5] was “no binding (tested: 1 µg/ml)”.

Source of the values: patent US20240092930A1 (MABWELL SHANGHAI BIOSCIENCE, published 2024).
